# Measurements published in patent publication US20200062814A1.
# Legend:
# [1] = target: mouse IgG1 (Fc)-LAP-MMP-IFN; test: cell-based or functional assay
# [2] = test system: mouse IgG1 (Fc)-LAP-MMP-IFN
# Sequence of recombinant MMP-1 (P03956 100-469): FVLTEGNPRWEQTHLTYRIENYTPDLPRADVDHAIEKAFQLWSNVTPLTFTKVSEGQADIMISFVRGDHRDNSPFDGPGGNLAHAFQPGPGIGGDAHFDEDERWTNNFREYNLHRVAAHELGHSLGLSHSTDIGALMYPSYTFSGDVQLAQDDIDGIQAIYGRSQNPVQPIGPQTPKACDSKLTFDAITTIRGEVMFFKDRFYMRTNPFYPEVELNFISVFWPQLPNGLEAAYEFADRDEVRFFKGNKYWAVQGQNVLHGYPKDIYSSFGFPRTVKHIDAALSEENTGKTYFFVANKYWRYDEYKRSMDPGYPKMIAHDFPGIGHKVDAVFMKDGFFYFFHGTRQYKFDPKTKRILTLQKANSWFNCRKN
# Sequence of mouse IgG1 (Fc)-LAP-MMP-IFN (chain, as listed by the source): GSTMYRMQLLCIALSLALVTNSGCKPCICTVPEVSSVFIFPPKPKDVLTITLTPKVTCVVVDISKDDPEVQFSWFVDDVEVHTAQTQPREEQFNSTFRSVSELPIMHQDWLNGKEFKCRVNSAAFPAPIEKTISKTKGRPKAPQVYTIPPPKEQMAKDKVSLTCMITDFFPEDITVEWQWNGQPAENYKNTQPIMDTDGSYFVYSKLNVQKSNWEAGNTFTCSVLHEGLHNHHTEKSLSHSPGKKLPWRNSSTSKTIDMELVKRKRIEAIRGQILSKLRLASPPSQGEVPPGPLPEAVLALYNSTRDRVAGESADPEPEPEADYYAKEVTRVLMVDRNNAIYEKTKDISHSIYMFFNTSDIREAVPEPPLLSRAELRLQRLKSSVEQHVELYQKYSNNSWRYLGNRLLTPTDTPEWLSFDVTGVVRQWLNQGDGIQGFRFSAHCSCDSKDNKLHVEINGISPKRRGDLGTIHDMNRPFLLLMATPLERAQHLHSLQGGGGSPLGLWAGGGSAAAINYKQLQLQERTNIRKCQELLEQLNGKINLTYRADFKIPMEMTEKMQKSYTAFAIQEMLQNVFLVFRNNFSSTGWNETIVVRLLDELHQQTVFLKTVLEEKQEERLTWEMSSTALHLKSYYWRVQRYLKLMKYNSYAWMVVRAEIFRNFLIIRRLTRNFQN
Substance,Luciferase activity (viability of L929 cells after EMC virus infection) [1],IFN biological activity (U/ml) [2] [U/ml],cleavage of Ig-LAP-IFN by MMP1 (western blot with anti-LAP antibodies after non-denaturing SDS-PAGE) [2]
recombinant MMP-1 (enzyme),5070,–,–
recombinant MMP-1,–,30,The molecular weight of the cleaved Ig-LAP corresponds to the expected size of about 160 kDa.
